Results from a protein production outcome set (Wang et al. 2014).

Assay: label from the status in PepcDB records

Sequence | protein production
MQIVKKEKFILKEYTFENGRTIPVQMGYETYGTLNRERSNVILICHYFSATSHAAGKYTAHDEESGWWDGLIGPGKAIDTNQYFVICTDNLCNVQVKNPHVITTGPKSINPKTGDEYAMDFPVFTFLDVARMQCELIKDMGIARLHAVMGPSAGGMIAQQWAVHYPHMVERMIGVITNPQNPIITSVNVAQNAIEAIRLDPSWKGGKYGEEQPMKGLQLANRMMFMNAFDEHFYETTYPRNSIEVEPYEKVSSLTSFEKEINKLTYRSIELVDANSWMYTAKAVLLHDIAHGFSSLEEALSNVEANVLMIPCKQDLLQPSRYNYKMVDLLQKQGKYAEVYEIESINGHMAGVFDIHLFEKKVYEFLNRKVSSFV | not failed
MPTVSVKWQKKVLDGIEIDVSLPPYVFKAQLYDLTGVPPERQKIMVKGGLLKDDGDWAAIGVKDGQKLMMMGTADEIVKAPEKAIVFAEDLPEEALATNLGYSAGLVNLGNTCYMNSTVQCLKSVPELKSALSNYSLAARSNDVDQTSHMLTVATRELFGELDRSVLRKKYPQFSQLQNGMHMQQDAEECWTQLLYTLSQSLKAPTSSEGADAVKALFGVNLQSRIKLGVLDNVTDSTVISKCTLHCQESGEESSETESVYSLKCHISHEVNHLHEGLKHGLKGELEKTSPALGRTALYVKESLIDSLPRYLTVQFVRFFWKRESNQKAKILRKVDYPLVLDIFDLCSEDLRKKLEAPRQKLREEEGKKLGLQTSAKSGSKDSDVKMTDAEASANGSGESSTVNPQEGTSSEKETHMTGIYDLVAVLTHKGRSADSGHYVAWVKQESGKWIQYDDDNPSMQREEDITKLSGGGDWHMAYITMYKARFVSM | failed
MRTVTGAILAMNLEVKDFVHRDVEEADRRLREIGARKILLQLPDGLKPYAFDYFTYLSQRYDVILSSSPVYGACDIGPSYLYDRVDAIVQVGHSIMRNVKYPRPVIFIEHYRTVDVEDINTEALKNYRRIGLIYSIQYRPVADRVKRILESKGFEVIIGRSDRRMTYDGQVLGCNFSSVHSVEAEVEAFVIVSTGSFHALGSQISTERPVFLLDLNEMSLRSMEKEADTFIRKRYAQIYRAMDAKRICFLVDTRIGQRREKLARMLMDRARDLGKEAVLAYTDNISDQDIQNMGCDLAVYTGCPRVPIDDQDRFTVPVLTPAEFSMAFFKSSKRYVLDEIVSVDEFTDQLEHHHHHH | failed
MALSDTKLRKIKAPYNGEAELADRDGLSVRVSPKALITFNYRFRWEGKQQRIKLGRYPGLKLIDARKKVNEYRHNLDEGLDPRVVQNESRSHNLFGDMCEAFMTKYVMTELRPKTQTLYKSTFNKYVTPYKNIDIERYKYTDWIAYFDWVKKESSSANAGSVLKRFKAVANWAKARGQIKHSHLIDIPIKAIGSHQQKRERCLEWDEVIGLWRQIESSKSTPQCKTCIQLLLLTGARNAEIREARRDEFDLDKNIWLLPPERSKTKKQVRRPLSTGVIELINKLDLIYGQDREYLIAGDIKGKPLTTHAVNRFVQRMNNHLKYPHFVPHDFRRTIVTRLSEHKVELHVTEKMLGHELGGILTRYNKHDWIDEQREAYELYWQKVTLLLKN | failed
MTVWDRPEPPHRPVPLDRERIVAAAVALADEGGLTAVSVRKVAARLDAGPMRLYGFISTKDELFDLMVDAVYAEILPEERAGDWREALRVLAHRTRQAALRHPWLADLLGGRPALGPNGLAVAEATLAALDGLADVDTVMRAVETVSSYFTGAVRREIADLRAERATGLSKPEWQREHGPHLTRMLATGRYPALAKAVHDGTHVDAEESFATGLDWVLDAVAVRLARPPGS | not failed
DEETKAFEALLSNIVKPVASDIQARTVVLTWSPPSSLINGETDESSVPELYGYEVLISSTGKDGKYKSVYVGEETNITLNDLKPAMDYHAKVQAEYNSIKGTPSEAEIFTTLSCEPDIPNPPRI | not failed
MITLTKEGGPADLDGVTHLSIGVSWDPTAGSSGGVLGKLRRKTGTDLDLIAVAMQGGDPVRLAGLDSLDPMGNGSLLHSGDNQTGHGDGDDETVTVEFARLPSAITSIVFVAAAYKKGSSFQKARNISFKVYDATGGSSEQVADIWPSLLSQDNGCAVAKAVRVGGTWKLEVVNETGKIKQGDEHALMRFAVSK | failed
MSGLVTGREIVQTARDENVPFMGASIAYYAIASIVPLLALLLAALSTFGGTVTLLELLRTVLSENGQVILTELLENTRGHGATGTLSLVLVVWSGSKVFRSLSVAFTEVYGEVTDISLPAQLVRSAVVMGVLLGAVVFLSATSVALTYVKFQVPYPTLVGNVAAFAALGVAFVPIYYVLPPVKTSLTHVAPGALFAAAGWITIQVGFFYYAGTAGRYAAYGYLGALLLFVTALYLAAIVLLLGVVVNATLDW | failed
MENGFFVKINYRIYTTFSEKHGIILSIISKKENPMAIYFGTYTKRESKGIYKANFDSETGQLSNLELVTEEPNPTYLAFDKAGHLYSVGAENGLGGIAAFNTDYTLLNHVVSEGAPLCYVAVDEARDLVYGSNFHKGQLLVYKRLADGSLELADVAQHEGSGPHENQASAHVHFSDLTPDKFLVTCDLGCDQVVTYKVSDQGKVEKIATYQAAPGSGPRHIVFHTVAKIAYLICELNSTIEVLIYDGWGQFEHLQTVSTLPEDHTGFNGTAAIRITKDGKFIYGSNRGNDSIAVYKTLADASLELVEIVPTNGKTPRDFTLSPDEKHLIVVHQDSDNATVFKRDAENGCLTELSHDFYVPEAVCVTFL | failed
MVKVYAPASSANMSVGFDVLGAAVTPVDGTLLGDVVSVEAADHFRLHNLGRFADKLPPEPRENIVYQCWERFCQALGKTIPVAMTLEKNMPIGSGLGSSACSVVAALVAMNEHCGKPLNDTRLLALMGELEGRISGSIHYDNVAPCFLGGMQLMIEENGIISQ | failed
MSPMRIGLVCIRGSVPAFENFGFLPTDIVGSNGLVNGSRAHRVLDGIIIPGGSIVESGSLSPELAFEIRRMASDGKFVLGICSGFQALAERTDIGRKSPCPVYREGLGLLNVTFHPMISNDRVEATITGESFLTSGMSGERITGFHCHTYGEIRGDAPEIMKSRIVRADYHERPGEILSGVCSDDGNVAGTMVHGCLDENQTLVSNILKFLDADETARERILEANRKLREALRSELGISTGIRVMDRGGTRGTPPAIMIASTGSDSGKTFILTGLAGALRRRGLRVGVIKVGPDVRDIVPALYLIKEPMEEHSSIRIGRLGWMELRDVLESVRGRYDIILIEGVMSILTGLLNDITPYSGAEIALAAGIPLIMVAGCSKGGIESAVVDLDAHISVLEGLGLEVSCGILNRVYDMDIFERASGGRYLAIPRVEMSERGGTPEVEIKLEDFCLKAMETVEEHLDVDTLISFAKKPEFRGYMGPEEIKKVFSPLEHHHHHH | failed
MADSKKITFEMNESVLTAQFSRLDEMASVVERRFSELKMTIEDVGNADPGSKITESLGGLQSGLGTISSAFGQLGSSSEAITSGFGTAVGSVGGITDAFKNLGSSVQNGTLFSSLSTGIGGMSTMLGGVTGGVQGITNLASGFMELKNHLGGLMSSIGGVGGIMGKLTSPMGLVIIGIVALVAAFTYLMTTNESFRNTVMSVVTQVAQLFGQLVASLMPIIMQIITAVMQIGAALMPIVMQFISFFAQLLAQLMPFINMLIAMLMPVIMQIVQVVMSLVSALLPSIMTVIQGIMSVIQFLIPIIMKIATVVVQIVVTIISYISKIMPIVMMIIGVIISIITTIISYIVVIATTISNVIGKIISFIASVITSIIGIVQPIIGFITNIFSSIVTVIGAAFQMVFAVASKIWNAIMATISGIIDGIKSVITGISTTVSSVFNGVKRIITGVFDGIKGAWGGLTEFVGTIFDGVSNAIQTVVDNVKGFVNVVIRGINSAISLINKIPGVEIGKIPQLISGTTNFQGGFARMNEGGRGEMVVLPSGSQVIPHDATMKYARESARGNKSMLYTNQGTDLARVENLLERLLQKNPVIKMDDKVVSEVVSRNQANSFDQYNYTMGGAAYS | failed
MQAFFANPAVSWTLLTTGGILLVVIWVLLSLAFLLLADRKIWAGVQMRKGPNVVGPFGLLQSFADFFKFVLKEIVIPAGADKVVFILAPLISLILAFVGWAVVPFAPGWVVSNLNVGILYLLAMSSLGVYGIIMGGWASNSKYPFLGALRSAAQMVSYEVSIGLIIITVILLAGSMNLSTIVEKQSGWIWNWNVFGGGLNNLVLLPVMVVAMGMFYISALAETNRPPFDLPEAESELVAGYQVEYSSTPYLLFMVAEYSNIVLMCAMISVLFFGGWNPGFPTDFLSSWHPFAANLFLALVFYAKICFWFFMFAMAKAIVPRYRYDQLMRLGWKVFLPTSLVLVAAVAAWRVFGPAA | failed
